Data on two molecules can be found in patent US20230381183A1, “USE OF FOLIC ACID AND FOLATE MODIFICATION IN INDUCING B-CELL IMMUNE TOLERANCE AND TARGETING mIgM-POSITIVELY-EXPRESSED B-CELL LYMPHOMA” (FUDAN UNIVERSITY, priority 2020, published 2023).

The nature of data set [1]: Water solubility (observation on preparation). It counts as physicochemical.
Data set [2] is described as follows: Blood routine analysis one week after last administration. The note with it: 10 μg/mouse tail vein weekly x3. The format is in vivo, BALB/c female mice. The text has this: The role of folate modification in mediating humoral immunosuppression and in reducing Anti-Drug Antibodies (ADA) of biomacromolecular drugs was investragated by using ovalbumin (OVA) as a model protein. OVA has strong immunogenicity and can induce the body to produce an immune response. Repeated stimulation of mice by OVA can cause the mice to produce lots of specific antibodies. The BALB/c female mice (5 weeks old) were randomly divided into FA-OVA (folate-OVA complex. Example 1) group, OVA group and physiological saline control group, with 6 mice in each group. FA-OVA, OVA and physiological saline were administered to mice via tail vein injection at a dose of 10 μg/mouse, once a week, three times in total.
In addition, the whole blood of the mice was collected one week after the last administration for blood routine analysis.

For data set [3], the system named is anaphylactic shock induced by OVA (allergen). As to the kind of experiment: Prevention of anaphylactic shock: pretreatment, then OVA challenge. The format is in vivo. The settings on record: pretreatment 10 μg OVA/mouse iv weekly x3; challenge 10 μg OVA; 10 mice per group. The procedure:
The BALB/c female mice (5 weeks old) were randomly divided into FA-OVA group, OVA group and physiological saline group, with 10 mice in each group. FA-OVA or OVA or physiological saline of an equal volume was administered to the mice via tail vein injection at a dose of 10 μg OVA/mouse, once a week for a total of three times. One week after the last administration, each mouse was injected with 10 μg OVA (allergen) via tail vein. Changes in body temperature of the mice within 2 hours after OVA stimulation were recorded (FIG. 18). In the meanwhile, the serum was collected from the mice, and was measured by ELISA for the expression of OVA-specific antibodies in the serum (FIG. 19). […] Therefore, folate modification can effectively prevent anaphylactic shock induced by allergens.

B1: FA-OVA: folate-modified ovalbumin complex, EDC coupling of folic acid to OVA (conjugate, UniProt P01012 2-386, looked up)
Ovalbumin: GSIGAASMEFCFDVFKELKVHHANENIFYCPIAIMSALAMVYLGAKDSTRTQINKVVRFDKLPGFGDSIEAQCGTSVNVHSSLRDILNQITKPNDVYSFSLASRLYAEERYPILPEYLQCVKELYRGGLEPINFQTAADQARELINSWVESQTNGIIRNVLQPSSVDSQTAMVLVNAIVFKGLWEKAFKDEDTQAMPFRVTEQESKPVQMMYQIGLFRVASMASEKMKILELPFASGTMSMLVLLPDEVSGLEQLESIINFEKLTEWTSSNVMEERKIKVYLPRMKMEEKYNLTSVLMAMGITDVFSSSANLSGISSAESLKISQAVHAAHAEINEAGREVVGSAEAGVDAASVSEEFRADHPFLFCIKHIATNAVLFFGRCVSP
modifications: folate via EDC coupling
As to B1, in data set [1], the water solubility entry is “easily soluble in water”. For the same molecule, in data set [2], the BASO is recorded as 0 10*9/L, the HCT came out at 49.83 ± 4.53%, the HGB is listed as 161.50 ± 9.26 g/L and the LYMPH was 2.78 ± 0.19 10*9/L. Besides, in data set [2], the MCH was 16.28 ± 0.59 pg, the MCHC was found to be 325.00 ± 12.35 g/L, the MCV came to 50.075 ± 1.37 fL and the MONO is reported as 0.035 ± 0.0058 10*9/L. Further, in data set [2], the MPV was found to be 7.05 ± 0.058 fL, the NEYT is on record as 0.94 ± 0.23 10*9/L, the NRBC was 0.015 ± 0.013 10*9/L and the P-LCR is recorded as 4.35 ± 1.01%. In addition, in data set [2], the PCT amounted to 0.41 ± 0.042%, the PDW is listed as 5.58 ± 0.096 fL, the PLT is given as 586.50 ± 59.29 10*9/L and the RBC was 9.96 ± 0.89 10*12/L. Moreover, in data set [2], the RDW-CV worked out at 14.78 ± 0.50% and the WBC is 3.77 ± 0.42 10*9/L.

B2: OVA: ovalbumin, model protein and allergen (protein, UniProt P01012 2-386, looked up)
Ovalbumin: GSIGAASMEFCFDVFKELKVHHANENIFYCPIAIMSALAMVYLGAKDSTRTQINKVVRFDKLPGFGDSIEAQCGTSVNVHSSLRDILNQITKPNDVYSFSLASRLYAEERYPILPEYLQCVKELYRGGLEPINFQTAADQARELINSWVESQTNGIIRNVLQPSSVDSQTAMVLVNAIVFKGLWEKAFKDEDTQAMPFRVTEQESKPVQMMYQIGLFRVASMASEKMKILELPFASGTMSMLVLLPDEVSGLEQLESIINFEKLTEWTSSNVMEERKIKVYLPRMKMEEKYNLTSVLMAMGITDVFSSSANLSGISSAESLKISQAVHAAHAEINEAGREVVGSAEAGVDAASVSEEFRADHPFLFCIKHIATNAVLFFGRCVSP
Regarding B2, in data set [3], the “anaphylactic shock / death after OVA challenge” value is “two mice died”. Further, in data set [2], the BASO is listed as 0 10*9/L, the HCT was 52.15 ± 5.97%, the HGB came to 169.25 ± 13.45 g/L and the LYMPH is reported as 2.58 ± 0.29 10*9/L. In addition, in data set [2], the MCH is 16.08 ± 0.67 pg, the MCHC is 325.75 ± 16.50 g/L, the MCV was found to be 49.43 ± 0.43 fL and the MONO is given as 0.035 ± 0.017 10*9/L. In addition, in data set [2], the MPV amounted to 7.10 ± 0.14 fL, the NEYT is reported as 0.80 ± 0.21 10*9/L, the NRBC was 0.025 ± 0.013 10*9/L and the P-LCR amounted to 5.15 ± 1.48%. In addition, in data set [2], the PCT is recorded as 0.45 ± 0.016%, the PDW turned out to be 5.53 ± 0.15 fL, the PLT is 635.00 ± 36.59 10*9/L and the RBC is recorded as 10.55 ± 1.13 10*12/L. In addition, in data set [2], the RDW-CV came to 14.63 ± 0.33% and the WBC is 3.43 ± 0.51 10*9/L.
